Results: publication doi:10.1101/2024.08.08.606885

What was measured:
Assay in all cases: BLI; […]; 10x kinetics buffer, […]; global fit, 1:1 binding model; […]
[1] = target: SARS-CoV-2 BA.2.86 RBD (SARS-CoV-2) (UniProt P0DTC2)
[2] = target: SARS-CoV-2 BA.2.75.2 RBD (SARS-CoV-2) (UniProt P0DTC2)
[3] = target: SARS-CoV-2 BA.5 RBD (SARS-CoV-2) (UniProt P0DTC2)
[4] = target: SARS-CoV-2 Wuhan-Hu-1 RBD (SARS-CoV-2) (UniProt P0DTC2)
[5] = target: SARS-CoV-2 BA.2.12.1 RBD (SARS-CoV-2) (UniProt P0DTC2)
[6] = target: SARS-CoV-2 BQ.1.1 RBD (SARS-CoV-2) (UniProt P0DTC2)
[7] = target: SARS-CoV-2 XBB.1.5 RBD (SARS-CoV-2) (UniProt P0DTC2)
[8] = target: SARS-CoV-2 Delta RBD (SARS-CoV-2) (UniProt P0DTC2)

Work on “TRI2-2 homotrimeric miniprotein inhibitor (designed binder)” yielded a Kd [1] of 0.388 nM, a koff [1] of 0.000131 s⁻¹ and a kon [1] of 339000 M⁻¹ s⁻¹. The Kd [2] was 0.542 nM, the koff [2] was 8.93e-05 s⁻¹ and the kon [2] was 165000 M⁻¹ s⁻¹. The Kd [3] was 0.0306 nM, the koff [3] was 9.92e-06 s⁻¹ and the kon [3] was 325000 M⁻¹ s⁻¹. It also gave a Kd [4] of 0.00121 nM, a koff [4] of 3.46e-07 s⁻¹ and a kon [4] of 286000 M⁻¹ s⁻¹. It also gave a Kd [5] of 0.851 nM, a koff [5] of 0.000117 s⁻¹ and a kon [5] of 137000 M⁻¹ s⁻¹. For the same substance, the Kd [6] was 0.21 nM, the koff [6] was 3.36e-05 s⁻¹ and the kon [6] was 160000 M⁻¹ s⁻¹. It also gave a Kd [7] of 0.658 nM, a koff [7] of 0.000105 s⁻¹ and a kon [7] of 160000 M⁻¹ s⁻¹. It also gave a Kd [8] of 0.00114 nM, a koff [8] of 2.95e-07 s⁻¹ and a kon [8] of 259000 M⁻¹ s⁻¹.
